System: anti-MPT64 antibody (purified rabbit antibody to recombinant M. tuberculosis H37Rv MPT64) (rabbit)
Test: ELISA
Settings: 20 mM Hepes pH 7.35, 120 mM KCl, 1 mM CaCl2, 1 mM MgCl2 ([…]

Sequence: GGGAGCTCAGAATAAACGCTCAAAAACGCTCAAGAGGCCCGGATCTTCGACATGAGGCCCGGATC [MPT64-A1]
- binding signal: 1.62 OD450

— paper PMC3410803
